Experimental findings from PMC6591006, “Broad and Potent Neutralizing Antibodies Recognize the Silent Face of the HIV Envelope” (Immunity, 2019) are described below.

Assay [1] addresses T1, YU2 gp140 foldon trimer (wild type) (HIV-1 group M subtype B isolate YU-2, UniProt P35961, stabilised).
T1 construct: also called uncleaved YU2 gp140 foldon trimer; YU2 gp140 WT; source: 293-6E, transiently transfected, purified (Ni-NTA)
Kind of assay: ELISA; YU2 gp120/gp140 proteins coated on the plate at 2 μg/ml; IgG in a 1:3 dilution series from 4 or 10 μg/ml, 1 h at room temperature or 37°C, in 1% BSA in PBS; detected with anti-human IgG. The note with it: both partners purified. For orientation: In an ELISA, binding on a coated surface is turned into a signal by an enzyme label.

For assay [2], the target named is T2, YU2 gp120 monomer (wild type) (HIV-1 group M subtype B isolate YU-2, UniProt P35961).
T2 construct: also called monomeric YU2 gp120; YU2 gp120 WT; source: 293-6E, transiently transfected, purified (Ni-NTA)
The assay is described as above. Conditions: both partners purified.

B1: Monoclonal anti-HIV-1 Env SF12 (IgG) (antibody, V domains shown)
VH: QVQLQESGPGLVKPSETLSVTCRVSGGSLDLYYWSWIRQPPGKGLQWIGFVYFDGSYGDYDPSLRSRVTISADMSKNQISLRLKSVTPADTAVYYCARLGPGGIFDRWTGHYGDKWLDPWGQGTLVTVSS
VL: QIDLTQSPRTLSLSAGERATLLCRASQSVSNVALAWYQHKPGQAPRLLLHEASTRATGIPDRFIGSGSGRDFTLTITSLEPEDFAVYYCQLSGRRLGQGTKVEIK
On to B1, for which the binding result in assay [1] and in assay [2] was “binds” throughout.

B2: Monoclonal anti-HIV-1 Env SF5 (IgG) (antibody, V domains shown)
VH: QVQLQESGPGLVKPSETLSVTCRVSGGSLDRYYWSWIRQPPGEGLQWIGHVYFDGSYGDYDPSLRSRVTITADMSKYQIILRLRSVTPADTAVYYCARLGPGGIFDRWTGHYGDKWLDPWGQGTLVTVSS
VL: QIVLTQSPRTLSLSAGERATLLCRASQSVSNVALAWYQHKPGQAPRLLLHEASIRAAGIPDRFVGSGSGRDFTLTITSLHPEDFAVYYCQLSGRRLGPGTKVEIK
On to B2, for which the binding result in assay [1] and in assay [2] was “binds” each time.
